The data set is described as follows: label from the status in PepcDB records.
As for “MAIYTVKALITDPIDEILIKTLREKGIQVDYMPEISKEELLNIIGNYDIIVVRSRTKVTKDVIEKGKKLKIIARAGIGLDNIDTEEAEKRNIKVVYAPGASTDSAVELTIGLMIAAARKMYTSMALAKSGIFKKIEGLELAGKTIGIVGFGRIGTKVGIIANAMGMKVLAYDILDIREKAEKINAKAVSLEELLKNSDVISLHVTVSKDAKPIIDYPQFELMKDNVIIVNTSRAVAVNGKALLDYIKKGKVYAYATDVFWNEPPKEEWELELLKHERVIVTTHIGAQTKEAQKRVAEMTTQNLLNAMKELGMI”, the protein production entry is on record as “not failed”.

Take “MQGQEDEVVLVEGPTLPETPRLFPLKIRCRADLVRLPLRMSEPLQSVVDHMATHLGVSPSRILLLFGETELSPTATPRTLKLGVADIIDCVVLTSS”: the protein production entry is recorded as “not failed”.

In the case of “PGQVIGLFGGSFDPPHAGHVHVTREALKMFGLDRVWWLVTPGNPLKAHGPAPLDRRMEAARAMMRHPRVDVTDIEAHLGTRVTADTIAALRRIYPRVRFVWLMGADNLAQLHRWKDWRQIIETVPVGVLARPGDRISARMSPAARAYAPYRIDGQARHLLGRAEAPAWCFVNVPMVDVSSTRIRAAGGWSAAQQGR”, the protein production result is given as “failed”.

Consider “MKKVFITTGTEHYLRQLMENYIGENVTLLQNFSQSLLYQESTGEKLFQEGKEYRVLQSSGSLKGFGIVVFEYIQLRDEEIPIFLQMYQHASLHFSETPGLQSTKLTKAMNTNQFLIVSFWDSEVFFQEWKKTPLHKEITSIMKKNNTQVGFSHEDIYHYPEFSHDAK”, for which the protein production result was “not failed”.

On to “MQSFWSKLKIESSKLLPSYFASVMAIGIFSIAFFLYNYNVLSYLLSYLSNVIYFALWVITVIRWVYYPRSYLNELKDLGRSPGFLSKVIATNTIGSEYMLIFKDYSLAYAFFMFGLILWIFYQYAVLSAISFNINDRNIEYVNGIWELIPASTQSVVDLGSILSPFHTYLYTLSLILFFIGVAQYIVMTSLILGRIVLKGLKPKDASGSYWIITGAAALSALAGIDLLIYLNEVNLQSAYIGDLRTIVLTFIILLWSTGTWWIPWLIYMGIWKHVINRVPLLVYDPQFWGAVFPMGMYATSSFLLIRYVNLNIPMLIPDIFILVGSVALVYQTSLMLYNVVKKLVD”, for which the protein production result is “failed”.

With “MHCVFLEFNMSVFKKIYFALSAFIVAPHIFLLMSSRHDNPIFRDIEVWSEKLLGKKISGRSGLVASVVELLSLAPEFRNLFYYRVPRARFFKFLSRPENTLHIHTRTIGPGFFIQHGFATIISAESIGADCWINQQVTIGYVDSTGAPKIGDNVTINAGAKVLGNIVIGDNAKVGANAVVVKNIPADCVVVGVPARIIRRAGARVDEAL”, the protein production result is recorded as “failed”.

Regarding “MKPSFKKLLLLFSIITILSIACTPHAKASGRSWKSWFIEQYFWLKRDKSYYKVQDESSFQKYLNASREQSDKGYYLDPNSVNGGLVQERLFDMQVYSWNDNGKANQKTIFYLAGGSYLNNPTPYHISMLKTLSTSLDAKIILPIYPKTPRYTYDYAIPRLVNLYRHFHEKNANLTLMGDSAGGGLALGLAHALSHQSGQEAIPQPKNIILLSPWLDVTMKHPEIPKYEDTDPILSAWGLARVGEIWANGSNNTNHTYVSPKNAPATKLAPITLFTGTREIFFPDIRDYAAQLQAANHPVNYIAQEGMNHVYPIYPIEEAKTAQYQMIDIINKTP”, the protein production entry was “failed”.

As to “MAHYKAADSKREQFRRYLEKSGVLDTLTKVLVALYEEPEKPNSALDFLKHHLGAATPENPEIELLRLELAEMKEKYEAIVEENKKLKAKLAQYEPPQEEKRAE”, the protein production result is recorded as “not failed”.

For the sequence “MLSYPRYLAVFLLIIGQSCLAFAEEQPQVGQLFKLFDSGESMPRATIEQNIALLEKLISSDDIERIEKLNQIKCWNQASDTEEEIAKALNYAEQALSQIPSTASTHFITDINLCRAWFLQLTGDINGAMEGYTKSVQSAYEHEDIKLIADARSLRGALYSYTGDFSEALDDLVTAQGLYESLNLTGWANINLTDIATSFRRYGDPESAIKYYKKLKELYLKNGNKEQVANVMSEIGIALDEMGKHEQAIEHFRFSYQYFKDQKLNIVAAINATNIAYSLIQLNRLDEAENYLNEAAPDISENEPAAYSFMKLFMGKIRNQQGRYQEALDELSAAEHAFRVMHNDRGLIQLLQLKSDIYAAMEDLPQAYHILQEFIALTKKVDDSSIAHQTTELKVKFDTSWIESENKRLIDNQKLKEQELTLLEKNKSLQLIILLLTGCILATVSLFAYKQVHRNRQLQTIALTDYLTQLPNRRHIYAQAEQYFQLALKQQIPFSIIIFDADHFKKINDNFGHEIGDQALLTIAEASKTLTTDRNLVGRIGGEEFLILLPNTDADRAWKLAHELQTLITRFGAINLPVELKLTVSAGVATLPIQSELQDQNFARLLKRADNALYEAKNAGRNCVKAAEITG”, the protein production entry is given as “failed”.

With “MGLFQSDKAAEEIDPPQDVTFVNDEAGANSNTTAAKKTESEKSDTAKADQASSTVMRELYLIDKNGYVVAQTLPLPKSESTAKQALEYLVQGGPVSEILPNGFRAVLPADTTVNVDIKKDGTAIADFSNEFKNYKKEDEQKIVQSVTWTLTQFSSIDKVKLRINGHELKEMPVGGTPISDDLSRKDGINLETAGVNDLTATHPLTVYYLAENEDSEYYVPVTKRIDNSEKDDITAAINELAKGPSKVSGLLTDFSEDVKLVSKPKIKDGRVTLDFNQSIFGSADEKTKMISSEVLNSIVLTLTEQPDVKSVSVKVNGKSELVNEKGEKLTEPVSRPSQVNTGSFLEHHHHHH”, the protein production entry is recorded as “not failed”.

For “SDMGTSALSKKPWWTLPQNFHAPMVFHMEEDQEELIFGHGDTYLRCIEVHSHTLIQLESWFTATGQTRVTVGPHRARQWLLHMFCCVGSQDSYHHARGLEMLERVRSQPLTNDDLVTSISVPPYTGDLSLAPRISGTVCLSVPQPSPYQVIGCSGFHLSSLYP”, the protein production result is “failed”.

In the case of “MSDILYSLLISAFLGLAHGLDADHIANVRIFKSVKKIFEFSLFHSAGFLIIAIPLSLLSLVTILEFPLLITSYSIGLLVSGLLLYGTVKGKELEIEPKRFGLLQGALVISPSKLIVLILALASESIFYAVLILLVFIVTSIISFMIFSLLNLIPKRFDKIVNIVISLGSIIYILYELITTLMSMH”, the protein production entry is “failed”.

Take “MSNEDSLPPFTLFGLDDVENYGLVTEADNSLPLDIHNQVFQLVEKGNQSFKESRFEEAISSYSKANSIKPLDPIVLGNRSAAYIRFGQYLKQRSASISEYKPLNGFDMSMLGELALKDADKLMSLQSSLVKSYITKACALMLLERYEVARDTILSGLQIDPFSGPLRSNLQELEKVMPNSMRKTHGMAERSDDFDCTVCLKLLYEPATTPCGHTFCRSCLFQSMDRGNKCPLCRTVIFMTPRTCAVSVTLNNIIEKNFPEEYAERKSEQDTLVHLGNESMPLFVMDVIIPCQKLSLHIFEPRYRLMVRRIMEGNHRMGMVALDSATGSPVDVACEVEITECDPLPDGRFVLELESHRRCRIVKAWDQDGYRVAEVEWVKDIPPQSEQGKADLRELTTSAASFARSWLDRAKEAARQGDRRRLEILLNVESMIPTPQDPERFSFWLATLTDRRPSERLELLRLQDTGEVLDYRLVQIARQISLFHQSLSFDC”: the protein production entry is given as “failed”.

Regarding “MGGSFGKKGASSATAAQVPLATETTPGLMSPSEKLKLSTLTTSIATSDFYASYDFMMHSIGLTSANNISLLSTGNISLQNILSEGNHFGVQPIVSSTTANASFLAGMLMAIFPKESELEVTVYFKTPSAFNPAQLTVIGSTSIGLGISDRSGLIIENGNAFGGIVKASAATETGSTYALSTSTWYICKFKMLTDDRFKVTLYSDSGTQLYSYTSTAAMFRADNATAHIGFKTQCKTATAGISLISIDLIEFKAKVSATRAKV”, the protein production entry was “not failed”.

Take “MPVVDIDPDELRRLTGHRSKDDDELRQDLFGLGIEYEGETEDGDFKLEFEADRLDRLSVEGIARSLRYHAGDDRGVDIPDTNAPEWAIDVTDVPADRPYVTGAVIRGVDLDADALDSLIQLQEKLHATMGRKRAKGAIGIHDLAMLKGDTVDGDGTAARSLTYTGIDPDGDTFVPLDDDAERTPADVLTEHPTGETYADLLADHDTYPAIYDDIGLFSFPPVINGRRTEVTTDSRELFVELTGTDQWTIDRMCAIICYALDARGATIEDVTVDYPDRELHRPDFAVRTKHVSHDRIETLLGVEFTTEAVVDLAERAGLDATPTDDGYDVEIPPYRVDVRHPVDVVDDLGRAYDFNDLTPRYPDVNTIGGRTESSRLERSVRQALVGLGFEDLLNFNMTSEAENFDRMRLTPDHDAVGAAQPATIAEPYSQDFTILRTWALPSLAMVLETNTHHAYPQDLAEVGFAAHADGDTQTGVAERRTVAAVLARNDASYEDAKARLQALCDEFAVALETPPTTHPSFIDGRAATIEIDGQPAGVIGELHPGVIVEHDVEVPVAGFEFELDALR”: the protein production entry is reported as “failed”.

“MKISLRLAVSSILGAIAYLGLAIWGMGGFSAFFGHPQLTLIAIATLLMVVAALYSEVNLSSGEQEDQGNRWVLPVFGVIGLLSGFVPAYSDRIDFCTFGGEGLRWLGALLFILGGGLRLWPVFILGRRFSGLVAIQPNHRLVVDGLYRHLRNPSYLGLLVNALGWALAFRSGLGLLLAALTLVPLIARIHAEEALLLKHFGKEYEAYCARSWRLLPGLY”: the protein production entry is on record as “failed”.

“MKLRSWEFYDRIARAYDSMYETPKWKLYHRLIGSFLEEYLKNPCRVLDLGGGTGKWSLFLQERGFEVVLVDPSKEMLEVAREKGVKNVVEAKAEDLPFPSGAFEAVLALGDVLSYVENKDKAFSEIRRVLVPDGLLIATVDNFYTFLQQMIEKDAWDQITRFLKTQTTSVGTTLFSFNSYAFKPEDLDSLEGFETVDIRGIGVMEYPDERISEREETIFRLEQELSRDRNIIWKADHIFFVLKKKRGA”: the protein production result is listed as “not failed”.

As to “MSLKIYGVYRSRASRPLWLLAELDLPFEHVPVIQANRVAHPHGPEAPLNTASAAYLAVNPLGQIPCLEEEGLILTESLAITLHIARTQGGQLGPRSEPEDALMVSWSLFAATAVEPPALEIQLIQRSGGGTSPEGQAAIAIAAERLRRPLARLERHFAAEDYLVGGRFTVADLNLAETLRYGQAHPALLEPFPAVAAWLDRCQSRPAFRLMMERRAAEGHHHHHH”, the protein production entry is recorded as “not failed”.

With “MSYQTWWSRVQVVDPEQLLDAVEEWDRPLVALTTPGTLARGLSLQVFRRIAPDEKNLLIIPHFCISGTIEKRLLEEGCCDENKITNENESIRIRCKTMNLHFGFHADTRDLLLFFSQWKPSCIVLVHGEGEKMDYLARVVQEEWGIQCWVPKEEQWITWKPNLTKSQ”, the protein production entry is recorded as “failed”.

With “MDLICMYVFKGEESFGESIDVYGDYLIVKVGTEFLAVPKKSIKSVEDGRIVIGEFDEEEARELGRKWLEEKSKPVTLEELKSYGFGEEGE”, the protein production result is listed as “not failed”.

For “KLRDLDIIVTAPPAPGWGGRYWILVKLTTDDGITGWGECYAASVGPEAMRAVIEDVFARHMEGENPENIELMFRRVYSSGFTQRPDLTAIGAFSGLEIACWDILGKARGRPVWALLGGKMNPRIRAYTYLYPLPHHPITPFWTSADMAAESAADCVARGYTAVKFDPAGPYTLRGGHMPAMTDISLSVEFCRKIRAAVGDKADLLFGTHGQFTTAGAIRLGQAIEPYSPLWYEEPVPPDNVGAMAQVARAVRIPVATGERLTTKAEFAPVLREGAAAILQPALGRAGGIWEMKKVAAMAEVYNAQMAPHLYAGPVEWAANVHFAASIPNILMCESIETPFHDALIKGSIRVEGGYITPPEAPGLGIEVDEALARANPYHGTGLHLEMQEASCDYTNGNSFAGGAPHEEG”, the protein production entry was “not failed”.

In the case of “MSHSLKDFLEACETLGTLRLIVTSSAAVLEARGKIEKLFYAELAKGKYANMHTEGFEFHLNMEKITQVKFETGEAKRGNFTTYAIRFLDEKQESALSLFLQWGKPGEYEPGQVEAWHTLKEKYGEVWEPLPVQL”, the protein production entry was “not failed”.

Values taken from a protein production outcome set (Wang et al. 2014).
